Earlier results, collected in patent publication US20150056205A1, “STEROID SPARING AGENTS AND METHODS OF USING SAME” (BIOGEN IDEC MA INC., priority 2004, published 2015).

Experiments:
α4 subunit of VLA-4 = biological target: T1, α4 subunit of VLA-4 (Homo sapiens, UniProt P13612); details: rat brain cells stimulated with tumor necrosis factor; cited from earlier work
T1 construct: endogenous in cells; host or cells: human lymphocytes (adhering to TNF-stimulated rat brain cell cultures)

VLA-4 = VLA-4 (Homo sapiens, UniProt P13612); details: cited from earlier work

B1: mu MAb 21.6: mouse monoclonal antibody specific for the α4 subunit of VLA-4; donor immunoglobulin for the humanized antibodies (antibody, V domains shown)
VH: MKCSWVMFFLMAVVTGVNSEVQLQQSGAELVKPGASVKLSCTASGFNIKDTYIHCVKQRPEQGLEWIGRIDPANGYTKYDPKFQGKATITADTSSNTAYLQLSSLTSEDTAVYFCAREGYYGNYGVYAMDYWGQGTSVTV
VL: DIQMTQSPSSLSASLGGKVTITCKTSQDINKYMAWYQHKPGKRPRLLIHYTSALQPGIPSRFSGSGSGRDYSFNISNLEPEDIATYYCLQYDNLWTFGGGTKLEIK
inhibition of human lymphocyte binding to tissue cultures of rat brain cells (α4 subunit of VLA-4): inhibit human lymphocyte binding
binding affinity for VLA-4 (VLA-4): about 10^9 M^−1
